{"source": "FireProtDB (doi:10.1074/jbc.271.12.6832)", "proteins": {"B1": {"name": "Autolysin wild type, P06653 (protein)", "chain": "MEINVSKLRTDLPQVGVQPYRQVHAHSTGNPHSTVQNEADYHWRKDPELGFFSHIVGNGCIMQVGPVDNGAWDVGGGWNAETYAAVELIESHSTKEEFMTDYRLYIELLRNLADEAGLPKTLDTGSLAGIKTHEYCTNNQPNNHSDHVDPYPYLAKWGISREQFKHDIENGLTIETGWQKNDTGYWYVHSDGSYPKDKFEKINGTWYYFDSSGYMLADRWRKHTDGNWYWFDNSGEMATGWKKIADKWYYFNEEGAMKTGWVKYKDTWYYLDAKEGAMVSNAFIQSADGTGWYYLKPDGTLADKPEFTVEPDGLITVK"}}, "settings": "Streptococcus pneumoniae serotype 4 (strain ATCC BAA-334 / TIGR4); pH 6.9; Thermal; DSC; phosphate 20 mM; transition: 4; reversible: no; whole UniProt chain shown", "note": "Values joined by “and” are separate entries in the source; they are usually repeats but may differ in a detail not shown here. Equal entries are not always repeated."}
{"protein": "B1", "values": [{"measurement": "unfolding enthalpy (van 't Hoff)", "value": "50 kcal/mol and 71 kcal/mol and 95 kcal/mol"}]}
